Experimental data reported in the RNAGym collection of RNA variant scans (doi:10.7554/elife.80360).

B1: Twister Ribozyme (parent)
chain: AACACUGCCAAUGCCGGUCCCAAGCCCGGAUAAAAGUGGAGGGGGCGG

Variants of: B1
Assay: self-cleavage, relative activity (ratio to wild type); higher = more cleavage; co-transcriptional

| Variant | self-cleavage |
| --- | --- |
| C27A A32G | 0.483 |
| C27A A32U | 0.446 |
| C27A A34C | 0.0922 |
| C27A A34G | 0.139 |
| C27A A35C | 0.58 |
| C27A A35G | 0.0986 |
| C27A A35U | 0.742 |
| C27A A40G | 0.145 |
| C27A A40U | 0.142 |
| C27A C46A | 0.416 |
| C27A C46G | 0.466 |
| C27A C46U | 0.639 |
| C27A G28A | 0.423 |
| C27A G38A | 0.241 |
| C27A G38C | 0.573 |
| C27A G38U | 0.33 |
| C27A G39A | 0.128 |
| C27A G39U | 0.0773 |
| C27A G41A | 0.119 |
| C27A G42A | 0.0939 |
| C27A G43A | 0.148 |
| C27A G43C | 0.136 |
| C27A G44A | 0.648 |
| C27A G44C | 0.298 |

| Variant | self-cleavage |
| --- | --- |
| C27A G44U | 0.41 |
| C27A G45A | 0.334 |
| C27A G45U | 0.207 |
| C27A G47A | 0.238 |
| C27A G47U | 0.186 |
| C27A G48C | 0.563 |
| C27A U31C | 0.495 |
| C27A U37A | 0.138 |
| C27A U37C | 0.136 |
| C27A U37G | 0.0964 |
| C27G | 0.0872 |
| C27G A30C | 0.105 |
| C27G A30G | 0.0912 |
| C27G A32G | 0.0742 |
| C27G A33G | 0.139 |
| C27G A40C | 0.119 |
| C27G A40G | 0.062 |
| C27G A40U | 0.107 |
| C27G C46A | 0.0878 |
| C27G C46U | 0.105 |
| C27G G28A | 0.0984 |
| C27G G28C | 0.216 |
| C27G G28U | 0.0803 |
| C27G G29U | 0.0759 |

| Variant | self-cleavage |
| --- | --- |
| C27G G36A | 0.0994 |
| C27G G36U | 0.0875 |
| C27G G39A | 0.0704 |
| C27G G39U | 0.123 |
| C27G G42A | 0.0529 |
| C27G G42C | 0.082 |
| C27G G43A | 0.0971 |
| C27G G43C | 0.0881 |
| C27G G43U | 0.0926 |
| C27G G44C | 0.133 |
| C27G G44U | 0.0884 |
| C27G G47A | 0.0917 |
| C27G G47C | 0.0485 |
| C27G G47U | 0.0917 |
| C27G G48U | 0.0985 |
| C27G U31C | 0.072 |
| C27G U37C | 0.102 |
| C27G U37G | 0.0978 |
| C27U | 0.876 |
| C27U A30C | 0.701 |
| C27U A32G | 0.697 |
| C27U A33G | 0.702 |
| C27U A33U | 0.709 |
| C27U A34G | 0.483 |

| Variant | self-cleavage |
| --- | --- |
| C27U A35C | 0.641 |
| C27U C46A | 0.825 |
| C27U G28C | 0.568 |
| C27U G28U | 0.501 |
| C27U G36A | 0.583 |
| C27U G36C | 0.21 |
| C27U G36U | 0.158 |
| C27U G38A | 0.72 |
| C27U G38U | 0.756 |
| C27U G39U | 0.168 |
| C27U G41A | 0.347 |
| C27U G41C | 0.176 |
| C27U G41U | 0.345 |
| C27U G43A | 0.211 |
| C27U G43U | 0.219 |
| C27U G44A | 0.84 |
| C27U G44C | 0.777 |
| C27U G45U | 0.638 |
| C27U G48A | 0.633 |
| C27U G48U | 0.942 |
| C27U U31A | 0.792 |
| C27U U31G | 0.723 |
| C27U U37A | 0.444 |
| G28A A30C | 0.935 |

| Variant | self-cleavage |
| --- | --- |
| G28A A30G | 0.938 |
| G28A A30U | 0.844 |
| G28A A32C | 0.941 |
| G28A A32G | 0.835 |
| G28A A32U | 0.817 |
| G28A A33G | 0.781 |
| G28A A33U | 0.707 |
| G28A A34C | 0.175 |
| G28A A34G | 0.606 |
| G28A A35C | 0.793 |
| G28A A35U | 0.847 |
| G28A C46A | 0.682 |
| G28A C46G | 0.864 |
| G28A G29A | 0.898 |
| G28A G36C | 0.131 |
| G28A G38A | 0.821 |
| G28A G39U | 0.16 |
| G28A G41A | 0.385 |
| G28A G42U | 0.261 |
| G28A G44A | 0.702 |
| G28A G44C | 0.718 |
| G28A G45A | 0.653 |
| G28A G45C | 0.185 |
| G28A G45U | 0.375 |

| Variant | self-cleavage |
| --- | --- |
| G28A G47A | 0.545 |
| G28A G47C | 0.283 |
| G28A G47U | 0.576 |
| G28A G48A | 0.775 |
| G28A U31C | 0.835 |
| G28A U37C | 0.391 |
| G28A U37G | 0.331 |
| G28C A30C | 0.848 |
| G28C A30G | 0.77 |
| G28C A32G | 0.734 |
| G28C A32U | 0.813 |
| G28C A33C | 0.745 |
| G28C A33G | 0.83 |
| G28C A34C | 0.154 |
| G28C A34G | 0.491 |
| G28C A40U | 0.17 |
| G28C C46A | 0.684 |
| G28C C46G | 0.565 |
| G28C C46U | 0.841 |
| G28C G29C | 0.865 |
| G28C G29U | 0.98 |
| G28C G36A | 0.292 |
| G28C G36C | 0.173 |
| G28C G38A | 0.743 |

| Variant | self-cleavage |
| --- | --- |
| G28C G39C | 0.159 |
| G28C G41A | 0.408 |
| G28C G41C | 0.217 |
| G28C G41U | 0.332 |
| G28C G43U | 0.17 |
| G28C G44A | 0.782 |
| G28C G45C | 0.155 |
| G28C G45U | 0.349 |
| G28C G47C | 0.254 |
| G28C G48A | 0.405 |
| G28C U31A | 0.814 |
| G28C U31C | 0.938 |
| G28C U31G | 0.739 |
| G28C U37C | 0.267 |
| G28U A30C | 0.968 |
| G28U A30G | 0.999 |
| G28U A32C | 0.716 |
| G28U A32G | 0.777 |
| G28U A32U | 0.873 |
| G28U A33C | 0.838 |
| G28U A33G | 0.979 |
| G28U A33U | 0.833 |
| G28U A34C | 0.205 |
